Assays:
S. aureus delta toxin = S. aureus delta toxin (Staphylococcus aureus, UniProt P0C1V1 1-26); experiment: ELISA, plate coated with toxin component
Procedure: (§1) MaxiSorp microtiter plates were coated overnight with 10 μg/mL of individual F-components of S. aureus bicomponent toxins per well. Recombinant toxin components were either obtained from IBT BioServices (Gaithersburg, Md.) or generated by GenScript (Piscataway Township, N.J.). […] Wells were washed 3 times and then incubated with 100 ng/mL anti-human HRP secondary antibody per well for one hour at 25° C. 100 μL of SuperSignal ELISA Pico Chemiluminescent Substrate, (ThermoFisher Scientific) was added to the wells and signal was detected (Victor X3 plate reader, Perkin Elmer). Luminescence values were analyzed by a three-parameter logistic equation over an 11-point response curve (GraphPad Prism). Isotype-matched irrelevant control antibody and S. aureus delta toxin were included as controls.

LukF (GS) = biological target: T1, LukF (GS) (Staphylococcus aureus); experiment: ELISA, plate coated with toxin component, chemiluminescence
T1 construct: also called LukF-PV; F-component LukF from GenScript
Procedure: as §1

HlgB (GS) = biological target: T2, HlgB (GS) (Staphylococcus aureus, UniProt P0A077 26-325); experiment: as above
T2 sequence: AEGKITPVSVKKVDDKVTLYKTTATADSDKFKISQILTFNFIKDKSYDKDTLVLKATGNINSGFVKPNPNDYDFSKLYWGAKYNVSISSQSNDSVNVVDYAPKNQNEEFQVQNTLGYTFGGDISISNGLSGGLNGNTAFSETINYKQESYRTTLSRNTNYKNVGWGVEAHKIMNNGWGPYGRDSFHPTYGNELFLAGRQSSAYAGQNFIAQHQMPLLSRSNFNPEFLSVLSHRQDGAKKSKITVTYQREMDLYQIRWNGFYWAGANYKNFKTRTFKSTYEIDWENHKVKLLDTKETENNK
Procedure: as §1

LukF (IBT) = biological target: T3, LukF (IBT) (Staphylococcus aureus); experiment: as above
T3 construct: also called LukF-PV; F-component LukF from IBT BioServices
Procedure: as §1

LukD (GS) = biological target: T4, LukD (GS) (Staphylococcus aureus, UniProt O54082 27-327); experiment: as above
T4 sequence: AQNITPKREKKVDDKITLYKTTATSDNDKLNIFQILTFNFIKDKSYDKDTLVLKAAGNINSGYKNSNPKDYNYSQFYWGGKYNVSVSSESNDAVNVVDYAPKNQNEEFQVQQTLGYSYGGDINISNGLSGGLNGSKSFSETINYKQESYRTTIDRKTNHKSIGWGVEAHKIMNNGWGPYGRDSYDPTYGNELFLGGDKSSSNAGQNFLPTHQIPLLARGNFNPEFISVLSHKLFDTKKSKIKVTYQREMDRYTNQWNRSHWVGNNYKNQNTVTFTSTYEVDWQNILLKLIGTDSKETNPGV
Procedure: as §1

B1: H1H15381P (antibody, V domains shown)
VH: EVQLVESGGGLVQPGGSLRLSCAASGFTFSRYDMHWVRQVTGKGLEWVSVIGTAGDTYYPDSVKGRFTISRENAKNSLSLQMNSLRAGDTAVYYCTRSYNWNFPFGYWGQGTLVTVSS
VL: DIQMTQSPSTLSASVGDRVTITCRASQSISSWLAWYQQKPGKAPRLLIYEASSLETGVPSRFSGSGSGTEFTLTISSLQPDDFATYYCQQYNRYPWTFGQGTKVEIK
What does the source list for B1?
binding result (S. aureus delta toxin): no binding (tested: titration 50 uM-100 pM); EC50 (LukF (GS)): 66.7 nM; EC50 (HlgB (GS)): 102 nM; EC50 (LukF (IBT)): 165 nM; EC50 (LukD (GS)): 59.6 nM
